Patent US20230285585A1, “TREATMENT OF PULMONARY HYPERTENSION” (PHILOGEN S.P.A., priority 2020, published 2023)
Entries after “also recorded” stand apart in the source; their conditions may differ.

Legend:
[1] = biological target: T1, recombinant fibronectin 11A12 domain (EDA) (Homo sapiens, UniProt P02751); test: Biacore surface plasmon resonance binding analysis; details: SPR, BIAcore X100, CM5 chip coated with recombinant fibronectin 11A12 domain
T1 construct: recombinant fibronectin 11A12 domain
Experimental: Binding affinity was determined by surface plasmon resonance using a BIAcore X100 instrument using a CM5 chip coated with recombinant fibronectin 11A12 domain. Samples were injected as serial-dilution, using a concentration range from […] to 125 nM.

[2] = Melting temperature (Protein Thermal Shift kit); format: physicochemical
Experimental: The melting temperature of the different mIL9 conjugates was determined using a StepOne real-Time PCR system in combination with the Protein Thermal Shift kit.

[3] = Storage stability (OD280, SEC, SDS-PAGE); format: physicochemical
Experimental: Storage stability of F8(scFv)-mIL9-F8(scFv) was assessed by size exclusion chromatography profile and analytical SDS-PAGE analysis of the protein after: a) incubation at 37° C. for 3, 5 and 7 days, b) incubation at 4° C. for 7 days and c) a series of 3 freeze and thaw cycles.

[4] = system: Monocrotaline (MCT) induced pulmonary hypertension (PH) in C57BL/6 mice; test: Right heart catheterization in MCT induced PH mouse model (Example 3); format: in vivo
Excerpt: (§1) Pulmonary Hypertension (PH) was induced in C57BL/6 mice (bodyweight: 25-30 g). The animals were obtained from ZET facility (Zentale Experimentelle Tierhaltung) of the University Hospital Jena (UKJ, Jena, Germany). Prior to PH induction, mice were allowed to acclimatize for at least 7 days with ad libitum access to food and water as well as controlled light/dark cycles. As shown in the overview of the experimental design and treatment schedule (FIG. 6), the following experimental groups were investigated: • sham induced controls (n=6) • MCT induced PH (n=8) • MCT induced PH+MACI (n=7) • MCT induced PH+F8(scFv)-mIL9-F8(scFv) (also named F8-IL9) (n=6) • MCT induced PH+KSF(scFv)-mIL9-KSF(scFv) (also named KSF-IL9) (n=6)
For PH induction, the Monocrotaline (MCT) method was used.
The sham induced controls were injected with 30 μl NaCl not containing MCT at day 1 (single dose; intraperitoneally, i.p.). […] The other 4 experimental groups were injected with MCT to induce PH (single dose; intraperitoneally, i.p.; 60 mg/kg body weight; volume 30 μl). Animals in the MCT induced PH+MACI group received the drug (Macitentan) from day 14 to day 28 (once daily; per os; 15 mg/kg body weight). […]
(§2) Statistical analyses were performed using IBM SPSS statistical software, version 25.0 (IBM SPSS Statistics for Windows. Armonk, N.Y., USA). Data are expressed as mean±standard deviation. […]

[5] = system: Monocrotaline (MCT) induced pulmonary hypertension (PH) in C57BL/6 mice; test: Echocardiographic assessment in MCT induced PH mouse model (Example 3); format: in vivo; details: in contrast to untargeted KSF(scFv)-mIL9-KSF(scFv)
Excerpt: as §1
For PH induction, the Monocrotaline (MCT) method was used. […]
(§3) Echocardiographic assessment was performed on day 28 (FIG. 6) using the Vevo 770 Rodent-Ultrasound-System, Visual Sonic, Canada, 17 MHz probe RMV176. […] Body temperature and respiratory rate were continuously monitored. All surrogate parameters of right ventricular (RV) morphology and function were assessed, among others, RV basal and medial diameters (in mm), RV length (in mm), and RV fractional area change (FAC, in %).
as §2

[6] = system: Monocrotaline (MCT) induced pulmonary hypertension (PH) in C57BL/6 mice; test: Right heart catheterization in MCT induced PH mouse model (Example 4); format: in vivo; details: in contrast to KSF containing control immunocytokines
Excerpt: To induce Pulmonary Hypertension (PH), C57BL/6 mice (bodyweight: 25-30 g) were used. The animals were obtained from ZET facility (Zentrale Experimentelle Tierhaltung) of the University Hospital Jena (UKJ, Jena, Germany). Prior to PH induction, mice were allowed to acclimatize for at least 7 days with ad libitum access to food and water as well as controlled light/dark cycles. In this set of experiments, 50 animals were investigated divided into the following 7 experimental groups: • sham induced controls (n=10) • MCT induced PH (n=8) • MCT induced PH+MACI (n=8) • MCT induced PH+F8mIL9F8 in CrAb format (n=6) • MCT induced PH+KSFmIL9KSF in CrAb format (n=6) • MCT induced PH+F8_(IgG-HC4)-mIL9 (n=6) • MCT induced PH+KSF_(IgG-HC4)-mIL9 (n=6)
For PH induction, the Monocrotaline (MCT, Carl Roth, Germany) method was used.
The sham induced controls were injected with 30 μl NaCl not containing MCT at day 1 (single dose; intraperitoneally, i.p.). […] The other 6 experimental groups were injected with MCT (single dose; intraperitoneally, i.p.; 60 mg/kg body weight; volume 30 μl). Animals in the MCT induced PH+MACI group received the drug (Macitentan, Actelion Pharmaceuticals Ltd.) from day 14 to day 28 (once daily; per os; 15 mg/kg body weight).
Animals in the MCT induced PH+F8mIL9F8 in CrAb format group received F8mIL9F8 3 times on days 14, 16 and 18 (intravenously, i.v.; 200 μg/injection; volume 154 μl). Animals in the MCT induced PH+KSFmIL9KSF in CrAb format group received KSFmIL9KSF 3 times on days 14, 16 and 18 (intravenously, i.v.; 198 μg/injection; volume 182 μl).
Animals in the MCT induced PH+F8_(IgG-HC4)-mIL9 group received F8_(IgG-HC4)-mIL9 3 times on days 14, 16 and 18 (intravenously, i.v.; 261 μg/injection; volume 137 μl). Animals in the MCT induced PH+KSF_(IgG-HC4)-mIL9 group received KSF_IgG-HC4mIL9 3 times on days 14, 16 and 18 (intravenously, i.v.; 258 μg/injection; volume 161 μl).
On day 28 after MCT injection, mice of all experimental groups were deeply anesthetized with a single dose of 100 mg/kg body weight ketamine and 10 mg/kg body weight Xylazin in approximately 60 μl each administered i.p.
Right heart catheterization using a 1.4 F micro conductance pressure-volume catheter (Model SPR-839; Millar Instruments Inc; PowerLab system, ADInstruments Ltd., Oxford, UK) was performed via the right vena jugularis interna to measure the systolic right ventricular pressure and thereby verify the success of the experimental setting. Mice were then sacrificed in deep anesthesia and analgesia to carry out cardiac blood collection after thoracotomy and to harvest the organs.
as §2

[7] = system: Monocrotaline (MCT) induced pulmonary hypertension (PH) in C57BL/6 mice; test: Echocardiographic assessment in MCT induced PH mouse model (Example 4); format: in vivo; details: in contrast to KSF containing control immunocytokines
Experimental: To induce Pulmonary Hypertension (PH), C57BL/6 mice (bodyweight: 25-30 g) were used. The animals were obtained from ZET facility (Zentrale Experimentelle Tierhaltung) of the University Hospital Jena (UKJ, Jena, Germany). Prior to PH induction, mice were allowed to acclimatize for at least 7 days with ad libitum access to food and water as well as controlled light/dark cycles. […]
as §3, with “28” for “28 (FIG. 6)”, “tricuspid annular plane systolic excursion (TAPSE, in mm), right atrial” for “and RV fractional”, “(RA area,” for “change (FAC,”, “mm^2) or main pulmonary artery diameter (MPA, in mm).” for “%).”
as §2

T1 sequence (P02751 1629-1905 limits assumed): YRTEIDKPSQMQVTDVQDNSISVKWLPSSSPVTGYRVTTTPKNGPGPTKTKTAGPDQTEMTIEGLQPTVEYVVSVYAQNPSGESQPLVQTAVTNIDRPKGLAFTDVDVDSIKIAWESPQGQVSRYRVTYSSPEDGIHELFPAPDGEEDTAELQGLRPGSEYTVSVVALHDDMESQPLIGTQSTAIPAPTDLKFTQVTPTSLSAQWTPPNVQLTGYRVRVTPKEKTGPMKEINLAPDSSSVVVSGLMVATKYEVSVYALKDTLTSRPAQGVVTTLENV

B1: F8(scFv)-mIL9-F8(scFv): murine IL9 conjugated at N- and C-terminus to an F8 scFv via 10 amino acid linker, CrAb format; SEQ ID NO: 17 (protein)
chain: EVQLLESGGGLVQPGGSLRLSCAASGFTFSLFTMSWVRQAPGKGLEWVSAISGSGGSTYYADSVKGRFTISRDNSKNTLYLQMNSLRAEDTAVYYCAKSTHLYLFDYWGQGTLVTVSSGGGGSGGGGSGGGGEIVLTQSPGTLSLSPGERATLSCRASQSVSMPFLAWYQQKPGQAPRLLIYGASSRATGIPDRFSGSGSGTDFTLTISRLEPEDFAVYYCQQMRGRPPTFGQGTKVEIKSGGSGSGGGGQRCSTTWGIRDTNYLIENLKDDPPSKCSCSGNVTSCLCLSVPTDDCTTPCYREGLLQLTNATQKSRLLPVFHRVKRIVEVLKNITCPSFSCEKPCNQTMAGNTLSFLKSLLGTFQKTEMQRQKSRPSGGSGSGGGGEVQLLESGGGLVQPGGSLRLSCAASGFTFSLFTMSWVRQAPGKGLEWVSAISGSGGSTYYADSVKGRFTISRDNSKNTLYLQMNSLRAEDTAVYYCAKSTHLYLFDYWGQGTLVTVSSGGGGSGGGGSGGGGEIVLTQSPGTLSLSPGERATLSCRASQSVSMPFLAWYQQKPGQAPRLLIYGASSRATGIPDRFSGSGSGTDFTLTISRLEPEDFAVYYCQQMRGRPPTFGQGTKVEIK
modifications: F8(scFv)-mIL9-F8(scFv) (“CrAb” format)
- apparent KD [1]: in the nM range
- increase in melting temperature compared with diabody formats F8(db)-mIL9 and mIL9-F8(db) [2]: ~3 °C
- stability to freeze and thawing (protein concentration, SEC profile, SDS-PAGE) ([3]; 3 cycles of freeze and thawing): no loss of concentration, no changes in the size exclusion profile or SDS-PAGE analysis; also recorded: no loss of concentration
- thermal stability over time (protein concentration, SEC profile, SDS-PAGE) ([3]; incubated at 4° for up to 7 days): no loss of concentration, no changes in the size exclusion profile or SDS-PAGE analysis; also recorded: no loss of concentration
- thermal stability over time (protein concentration, SEC profile, SDS-PAGE) ([3]; incubated at 37° C. for up to 7 days): no loss of concentration, no changes in the size exclusion profile or SDS-PAGE analysis; also recorded: no loss of concentration
- treatment effects relative to MACI (result in words) ([4]; MACI 15 mg/kg per os once daily day 14 to 28): at least comparable
- pressure values in the right ventricle (result in words) ([4]; in contrast to untargeted KSF(scFv)-mIL9-KSF(scFv), 200 μg/injection i.v. days 14, 16, 18): significantly reduce
- echocardiographic signs of right ventricular load and dysfunction (result in words) [5]: significantly improved the majority
- pressure values in the right ventricle, RVPsys (result in words) [6]: significantly reduced
- echocardiographic signs of right ventricular load and dysfunction (result in words) [7]: significantly improved a variety
